Measurements taken from publication PMC12459221, “A flexible, allosteric loop regulates protein activity and rewires electrostatics” (Protein Science : A Publication of the Protein Society, 2025).

Substrate: C=C(O[C@@H]1C=C(C(=O)O)C=C[C@H]1O)C(=O)O
Test: enzyme kinetics, triplicate
Format: biochemical, Saccharomyces cerevisiae
Conditions: pH 6.5 or 7.5, 22 °C, 150 mM NaCl
Text: enzyme kinetics, triplicate on chorismate mutase (CM) | a similar mutation (E219A)

B1: chorismate mutase (CM) (Saccharomyces cerevisiae S288C; E219A) (protein)
chain: MDFTKPETVLNLQNIRDELVRMEDSIIFKFIERSHFATCPSVYEANHPGLEIPNFKGSFLDWALSNLEIAHSRIRRFESPDETPFFPDKIQKSFLPSINYPQILAPYAPEVNYNDKIKKVYIEKIIPLISKRDGDDKNNFGSVATRDIECLQSLSRRIHFGKFVAEAKFQSDIPLYTKLIKSKDVEGIMKNITNSAVEEKILERLTKKAEVYGVDPTNASGERRITPEYLVKIYKEIVIPITKEVEVEYLLRRLEE
notes: TEV-cleavable tagged CM in pET21a, E. coli BL21*(DE3); 60 kDa homodimer
Km: 600 ± 200 µM
